Assay results taken from US20210238298A1 (ALLIGATOR BIOSCIENCE, published 2021).

Experiments:
[1] = target: T1, recombinant human CD137-Fc (R&D #838-4B) (human, UniProt Q07011 24-186); assay: SPR (summary table)
T1 construct: Bought; also called Human CD137 (R&D systems); CD137 (R&D Systems); not shown: Fc part, not described

CD40 (Ancell) = target: T2, CD40 (Ancell) (UniProt P25942 21-193); assay: ELISA, coated CD40-Fc
T2 construct: also called CD40-Fc (Ancell #504-820); not shown: Fc part, not described
Method: (§1) ELISA plates (Greiner #655074) were coated with 50 μl/well of recombinant human OX40 (R&D #1493-CD), CD40-Fc (Ancell #504-820) or CD137 (R&D #838-4B) diluted to a final concentration of 0.5 μg/ml in PBS for 1 h at 37° C. or overnight at 4° C. Plates were washed with PBS+0.05% TWEEN20 (PBST), followed by block with PBST+1% bovine serum albumin (BSA). Antibody samples were prepared as serial 1/10 dilutions from 10-0.01 μg/ml in PBST+1% BSA and incubated for 1h in room temperature, followed by detection using a horse radish peroxidase-conjugated anti-human kappa light chain antibody (AbD Serotec #STAR127P) and developed using SuperSignal ELISA Pico Chemiluminescent substrate (Pierce ThermoScientific #37069).

[2] = target: CD137 on primary human CD8+ T cells (human, UniProt Q07011 24-255); assay: cell-based or functional assay
[3] = target: T1, recombinant human CD137-Fc (R&D #838-4B); assay: ELISA, coated CD137-Fc; mean
[4] = target: T3, CD137 chimera 1550 (1407): human CD137 with mouse domains 1, 2A and 2B (aa 24-86), on FreeStyle 293-F cells (human; mouse, UniProt P20334 24-85); assay: flow cytometry, 293-F transfectants
T3 construct: domain: 1, 2A and 2B

[5] = target: T4, CD137 chimera 1551 (1408): human CD137 with mouse domains 2A, 2B and 3A (aa 47-96), on FreeStyle 293-F cells (human; mouse, UniProt P20334 46-95); assay: flow cytometry, 293-F transfectants
T4 construct: domain: 2A, 2B and 3A

[6] = target: T5, CD137 chimera 1552 (1409): human CD137 with mouse domains 2B, 3A and 3B (aa 64-118), on FreeStyle 293-F cells (human; mouse, UniProt P20334 63-117); assay: flow cytometry, 293-F transfectants
T5 construct: domain: 2B, 3A and 3B

[7] = target: T6, CD137 chimera 1553 (1410): human CD137 with mouse domains 3A, 3B and 4A (aa 87-133), on FreeStyle 293-F cells (human; mouse, UniProt P20334 86-133); assay: flow cytometry, 293-F transfectants
T6 construct: domain: 3A, 3B and 4A

[8] = target: T7, CD137 chimera 1554 (1411): human CD137 with mouse domains 3B, 4A and 4B (aa 97-159), on FreeStyle 293-F cells (human; mouse, UniProt P20334 96-159); assay: flow cytometry, 293-F transfectants
T7 construct: domain: 3B, 4A and 4B

[9] = target: T8, CD137 chimera 1555 (1412): human CD137 with mouse domains 1 and 4B and region of unknown function (aa 24-46 … (human; mouse, UniProt P20334 24-45; P20334 139-185); assay: flow cytometry, 293-F transfectants
T8 construct: domain: 1;domain: 4B and region of unknown function

[10] = target: construct 1030: full length human CD137, on FreeStyle 293-F cells (human, UniProt Q07011 24-255); assay: flow cytometry, 293-F transfectants
[11] = target: T9, Human OX40 (R&D systems, #3358_OX) (human, UniProt P43489 29-216); assay: ELISA, coated recombinant human OX40
T9 construct: Bought; Several catalogue numbers are given for it; also called human OX40 (R&D Systems, 3388-OX); OX40-Fc (R&D systems, #3358_OX); not shown: Fc part
T9 sequence: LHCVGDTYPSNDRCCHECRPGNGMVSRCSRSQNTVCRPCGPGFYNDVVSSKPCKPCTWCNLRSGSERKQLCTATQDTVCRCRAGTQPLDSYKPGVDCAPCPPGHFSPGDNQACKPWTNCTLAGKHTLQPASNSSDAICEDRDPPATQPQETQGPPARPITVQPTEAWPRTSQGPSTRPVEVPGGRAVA
Method: as §1

[12] = target: T1, recombinant human CD137-Fc (R&D #838-4B); assay: SPR (summary table); column headed ka (1/s)
[13] = target: T10, extracellular part of cynomolgus CD137 fused to the transmembrane and intracellular part of hCD40, on CHO … (cynomolgus (Macaca fascicularis); human, UniProt A9YYE7 24-186; P25942 194-277); assay: flow cytometry, CHO cells; against human CD137
T10 construct: extracellular domain;domain: transmembrane and intracellular part; also called CHO-cyCD137; cyno CD137
Method: (§2) Binding and EC50 to human and cynomolgus (Macaca fascicularis) CD137 was determined using flow cytometry of CHO cells transfected with human CD137, cynomolgus CD137 or empty vector. The extracellular part of human or cynomolgus CD137 was fused to the transmembrane and intracellular part of human CD40 and cloned into pcDNA3.0. The vector was subsequently stably transfected into CHO cells. […] CD137-transfected and empty vector-transfected cells were incubated with CD137 antibodies for at least 1h at 4° C. to saturate the binding. In order to minimize antibody internalization, 0.05% sodium azide was used in the incubation buffer and all work was performed on ice. […] Directly after staining the cells were fixed with a paraformaldehyde solution (10× concentrate BD CellFIX, BD biosciences #340181). Cells were analyzed by flow cytometry using FACSVerse (BD Biosciences). The median fluorescence intensity (MFI) for each sample was determined and the dose response data was analysed using Graph Pad Prism.
(§3) MFI data was normalized for each antibody, where 0% is defined as the lowest value and 100% is the highest value in the dose titration for each antibody.

[14] = target: T11, extracellular part of human CD137 fused to the transmembrane and intracellular part of hCD40, on CHO cells (human, UniProt P25942 194-277, limits assumed); assay: flow cytometry, CHO transfectants (summary table)
T11 construct: domain: transmembrane and intracellular part; also called CHO-huCD137; human CD137 over-expressed on CHO cells

[15] = target: T11, extracellular part of human CD137 fused …; assay: flow cytometry, CHO cells; 95% confidence interval
Method: as §2, §3

[16] = target: T10, extracellular part of cynomolgus CD137 …; assay: flow cytometry, CHO cells; 95% confidence interval
Method: as §2, §3

[17] = target: T1, recombinant human CD137-Fc (R&D #838-4B); assay: SPR (Biacore), immobilised human CD137, bivalent antibody in flow
Method: Human CD137 (R&D systems) was immobilized to the Biacore™ sensorchip, CM5, using conventional amine coupling. The tested antibody and control (serially diluted ½ 10-0.63 nM) were analyzed for binding in HBS-P (GE, #BR-1003-68) at a flow rate of […]. The association was followed for 5 minutes and the dissociation for 15 minutes. Regeneration was performed twice using 10 mM Glycine pH 1.7 for 30 seconds. The kinetic parameters and the affinity constants were calculated using 1:1 Langmuir model.

T1 sequence (Q07011 24-186 limits assumed): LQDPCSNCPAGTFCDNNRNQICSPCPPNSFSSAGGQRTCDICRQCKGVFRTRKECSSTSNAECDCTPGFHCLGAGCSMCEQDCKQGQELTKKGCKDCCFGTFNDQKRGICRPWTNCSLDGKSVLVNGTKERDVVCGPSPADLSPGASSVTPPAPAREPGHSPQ
Chain of CD137 on primary human CD8+ T cells (Q07011 24-255 limits assumed): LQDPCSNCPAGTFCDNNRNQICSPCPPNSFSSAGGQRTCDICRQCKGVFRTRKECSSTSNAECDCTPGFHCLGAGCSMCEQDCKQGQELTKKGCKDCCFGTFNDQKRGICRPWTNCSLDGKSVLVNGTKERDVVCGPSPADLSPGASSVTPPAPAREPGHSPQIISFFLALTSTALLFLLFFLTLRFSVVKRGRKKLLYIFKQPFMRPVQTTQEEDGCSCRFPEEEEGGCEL
T11 sequence (P25942 other isoform, or with tags, fused parts or gaps limits assumed): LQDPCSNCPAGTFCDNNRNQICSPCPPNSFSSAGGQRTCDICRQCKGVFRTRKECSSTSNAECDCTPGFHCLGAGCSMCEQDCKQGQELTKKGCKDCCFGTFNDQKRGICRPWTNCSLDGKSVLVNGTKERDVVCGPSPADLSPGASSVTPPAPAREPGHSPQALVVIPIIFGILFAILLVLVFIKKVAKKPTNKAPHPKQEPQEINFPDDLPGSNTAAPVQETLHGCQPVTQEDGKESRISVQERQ
T10 sequence (P25942 other isoform, or with tags, fused parts or gaps): as the sequence (P25942 other isoform, or with tags, fused parts or gaps limits assumed) above, with P4L, N19S, R50K, T66I, P67S, F69Y, G75E, V149A counted along it
Chain of construct 1030: full length human CD137, on FreeStyle 293-F cells (Q07011 24-255 limits assumed): as the sequence (Q07011 24-255 limits assumed) above
T2 sequence (P25942 21-193 limits assumed): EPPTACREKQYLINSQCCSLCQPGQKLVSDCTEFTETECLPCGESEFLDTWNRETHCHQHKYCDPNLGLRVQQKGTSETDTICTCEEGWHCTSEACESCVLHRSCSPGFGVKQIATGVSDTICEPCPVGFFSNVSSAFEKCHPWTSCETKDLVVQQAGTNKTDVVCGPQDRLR
T7 sequence (P20334 other isoform, or with tags, fused parts or gaps mutant limits assumed): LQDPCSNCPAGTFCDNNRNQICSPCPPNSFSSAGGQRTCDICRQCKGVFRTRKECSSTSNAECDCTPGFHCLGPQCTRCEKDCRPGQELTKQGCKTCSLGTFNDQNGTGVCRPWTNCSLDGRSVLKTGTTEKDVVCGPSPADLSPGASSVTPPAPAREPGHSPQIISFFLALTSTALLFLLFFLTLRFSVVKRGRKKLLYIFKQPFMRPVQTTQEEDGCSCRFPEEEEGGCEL
T6 sequence (P20334 other isoform, or with tags, fused parts or gaps mutant limits assumed): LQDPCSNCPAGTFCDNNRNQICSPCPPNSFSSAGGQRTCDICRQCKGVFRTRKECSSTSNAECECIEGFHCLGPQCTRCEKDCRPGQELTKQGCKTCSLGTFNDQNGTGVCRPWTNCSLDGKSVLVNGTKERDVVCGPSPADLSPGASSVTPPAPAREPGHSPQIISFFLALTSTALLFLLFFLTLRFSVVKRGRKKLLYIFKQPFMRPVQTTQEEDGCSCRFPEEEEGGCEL
T4 sequence (P20334 other isoform, or with tags, fused parts or gaps mutant limits assumed): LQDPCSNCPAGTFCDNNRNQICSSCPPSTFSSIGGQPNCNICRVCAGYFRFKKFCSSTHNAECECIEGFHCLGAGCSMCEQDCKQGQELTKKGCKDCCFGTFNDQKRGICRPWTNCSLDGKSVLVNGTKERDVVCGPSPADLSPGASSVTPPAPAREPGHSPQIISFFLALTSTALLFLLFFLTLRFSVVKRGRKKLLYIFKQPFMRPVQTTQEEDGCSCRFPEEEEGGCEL
T5 sequence (P20334 other isoform, or with tags, fused parts or gaps mutant limits assumed): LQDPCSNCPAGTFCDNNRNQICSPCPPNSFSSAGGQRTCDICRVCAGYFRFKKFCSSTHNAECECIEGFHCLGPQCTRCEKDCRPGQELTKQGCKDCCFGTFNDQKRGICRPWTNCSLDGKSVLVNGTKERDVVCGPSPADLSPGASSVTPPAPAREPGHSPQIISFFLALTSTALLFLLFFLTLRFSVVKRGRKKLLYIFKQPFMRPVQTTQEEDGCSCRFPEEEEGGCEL
T3 sequence (P20334 other isoform, or with tags, fused parts or gaps mutant limits assumed): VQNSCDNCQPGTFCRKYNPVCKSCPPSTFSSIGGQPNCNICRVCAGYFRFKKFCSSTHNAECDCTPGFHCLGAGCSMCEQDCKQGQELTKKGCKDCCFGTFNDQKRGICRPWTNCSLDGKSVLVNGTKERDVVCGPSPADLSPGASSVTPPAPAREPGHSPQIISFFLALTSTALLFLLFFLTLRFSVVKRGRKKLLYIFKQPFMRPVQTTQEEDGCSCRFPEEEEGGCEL
T8 sequence (P20334 other isoform, or with tags, fused parts or gaps mutant limits assumed): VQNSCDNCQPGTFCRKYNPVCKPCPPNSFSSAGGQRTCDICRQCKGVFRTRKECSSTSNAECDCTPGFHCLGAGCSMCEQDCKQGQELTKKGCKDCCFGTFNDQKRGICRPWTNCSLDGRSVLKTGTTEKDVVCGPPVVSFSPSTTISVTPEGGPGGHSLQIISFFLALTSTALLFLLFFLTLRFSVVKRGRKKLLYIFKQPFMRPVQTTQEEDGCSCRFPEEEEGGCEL

B1: anti-CD137 antibody 1618/1619 (antibody, IgG1, V domains shown)
VH: EVQLLESGGGLVQPGGSLRLSCAASGFTFSYGSMYWVRQAPGKGLEWVSSISSGSGSTYYADSVKGRFTISRDNSKNTLYLQMNSLRAEDTAVYYCARSSYYGSYYSIDYWGQGTLVTVSS
VL: DIQMTQSPSSLSASVGDRVTITCRASQSISSYLNWYQQKPGKAPKLLIYAASSLQSGVPSRFSGSGSGTDFTLTISSLQPEDFATYYCQQYYDNLPTFGQGTKLEIK
notes: Produced as IgG; also called 1618-bio
Question: For B1, which Kd [1] is on record?
Answer: 0.1 nM

Question: What about the kon [1] of the same binder?
Answer: 1e+06 M⁻¹ s⁻¹

Question: Does B1 bind (CD40 (Ancell))?
Answer: no binding (tested: 10 µg/ml)

Question: What about the “Max IFN-γ” value [2] of the same binder?
Answer: 111000 pg/mL

Question: And the “Mean IFN-γ” value [2]?
Answer: 33600 pg/mL

Question: And the “Min IFN-γ” value [2]?
Answer: 7380 pg/mL

Question: What about the EC50 [3] of the same binder?
Answer: 0.35 nM

Question: And the “relative binding (MFI sample/isotype control, normalised to full-length human CD137)” value [4]?
Answer: 0.11

Question: And the “relative binding (MFI sample/isotype control, normalised to full-length human CD137)” value [5]?
Answer: 0.67

Question: And the “relative binding (MFI sample/isotype control, normalised to full-length human CD137)” value [6]?
Answer: 1.2

Question: And the “relative binding (MFI sample/isotype control, normalised to full-length human CD137)” value [7]?
Answer: 1.24

Question: And the “relative binding (MFI sample/isotype control, normalised to full-length human CD137)” value [8]?
Answer: 1.01

Question: What about the “relative binding (MFI sample/isotype control, normalised to full-length human CD137)” value [9] of the same binder?
Answer: 0.12

Question: And the “relative binding (MFI sample/isotype control, normalised to full-length human CD137)” value [10]?
Answer: 1

Question: Does B1 bind [11]?
Answer: no binding (tested: 10 µg/ml)

Question: What about the koff [12] of the same binder?
Answer: 0.0001 s⁻¹

Question: And the “Ratio, cyno:human (EC50)” value [13]?
Answer: 0.77

Question: And the EC50 [14]?
Answer: 0.11 to 0.19 mg/L

Question: What about the EC50 [15] of the same binder?
Answer: 0.11 to 0.19 mg/L

Question: And the EC50 [16]?
Answer: 0.086 to 0.15 mg/L

Question: What about the Kd [17] of the same binder?
Answer: 0.107 nM

Question: What about the koff [17] of the same binder?
Answer: 0.00011 s⁻¹

Question: What about the kon [17] of the same binder?
Answer: 1.02e+06 M⁻¹ s⁻¹
